According to the supplement of paper PMC12042874:
± gives the uncertainty stated by the source.

Experiment: amyloid nucleation score (Sup35N fusion, yeast selection) (log enrichment); library NNK1; higher = more nucleation; inactive = no reads after selection
Method in brief: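 After 24 hours of induction with 100 μM copper sulfate, psi-negative yeast expressing peptides of 20 random codons fused to Sup35N were grown for 7 days at 30°C on medium lacking adenine and uracil. Input and output plasmid inserts were sequenced with Illumina, and sequences with under 100 input reads were discarded. Scores for nucleation are the DiMSum log enrichment of output over input reads, centred on the mode score of non-aggregating sequences.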

In order of rising amyloid nucleation score:
1. SRVVFTSM  -1.18 ± 1.6
2. FGFSKWSSMLIRHQPYDLFI  -1.1 ± 1
3. SPEFEEAWDGIKFYCKGANP  -1.09 ± 1.2
4. YIWAFLVGFVLTHYCSPHPD  -1.07 ± 0.68
5. GKSMYCYK  -0.96 ± 2.7
6. LCINLVYRKISPALRF  -0.859 ± 0.75
7. KEFMRWHQTPRFVKKTHVRG  -0.834 ± 1.4
8. GVTYNLK  -0.685 ± 1
9. GNIFAYGT  -0.611 ± 0.76
10. FWELECADIAVKSKGGCQGC  -0.402 ± 0.44
11. QYLFSGLEEMPIVTVLS  -0.393 ± 0.31
12. VVLMLRDVEEFRQ  -0.38 ± 0.21
13. CWTCTSRVEWSPV  -0.374 ± 0.74
14. MDKCIVSGVVESIFTGGAVI  -0.361 ± 0.75
15. FCDILQVLVCYGLLKRVLKV  -0.296 ± 0.3
16. GFCFCCRSGYARVIRFEART  -0.17 ± 0.48
17. ICISSPVMMKAIPLPFEFSR  -0.167 ± 0.43
18. SHGSTLLARYCRINGWPATP  -0.167 ± 0.71
19. MIKSKM  -0.154 ± 0.61
20. AVVERFHL  -0.132 ± 0.39
21. TMSRQHKTGPNGSRAL  -0.073 ± 0.79
22. AACLCLYAFGRYVVTRCYGR  -0.068 ± 0.69
23. INLYVNISRFIPCV  0.027 ± 0.53
24. PHMMELSVDTKGNVLKVGSH  0.055 ± 0.52
25. NMQTYGGLKE  0.116 ± 0.71
26. LDGVFNTTIATVNSFREYLM  0.132 ± 0.48
27. VKSYNGVGTMYLSRIMLYQY  0.163 ± 1.4
28. LIDLCGLCFEAR  0.181 ± 0.26
29. LFFQPLVLFKKRLEYCFRLL  0.2 ± 0.6
30. LNDRYYVIM  0.233 ± 0.93
31. TVKSWKFNRFIGLKRSTESL  0.238 ± 0.42
32. LLSIVPPDIFCQFSGHGRLT  0.26 ± 0.62
33. FTLHYCLMDAFWGSSMDRGV  0.275 ± 0.41
34. KVFWLYPMNLS  0.278 ± 0.65
35. ATDSWDC  0.278 ± 0.33
36. LCALSEVLVLCDSY  0.29 ± 0.96
37. SILLWDLKANF  0.346 ± 0.29
38. SFMVFYNLVCLHMMSNFVAL  0.377 ± 0.68
39. CILAGGSSVGLNCVGMSTCG  0.438 ± 0.8
40. KYPYLYLPIRMLNRQHARVG  0.449 ± 0.62
41. NSDLWIGVCAVLSGLMTIIG  0.509 ± 0.64
42. DCRFNRGGFNNVR  0.514 ± 0.31
43. HCVTFACC  0.523 ± 0.53
44. GGELMAFTA  0.553 ± 0.49
45. YYMLGYLDSYLWSENDLWMC  0.642 ± 0.36
46. STILKWRSWLARFLIHMVVV  0.659 ± 0.47
47. GIRPNFTVRFGGSWSQRNDR  0.749 ± 0.47
48. CEGCSWFSCSF  0.749 ± 0.48
49. LYDRCYGIRSSAIEGEEYKR  0.806 ± 0.97
50. TASLLLTLLFGLPEGLLW  0.975 ± 0.3
51. SLDLMCGHQPRSCMVLDSRV  0.983 ± 0.97
52. FNDGYSVAEA  0.998 ± 0.48
53. GNGFVL  0.999 ± 0.45
54. RKGSVSQRDYSIDYWGFCRC  1.37 ± 0.22
55. MQFLVVLCQCQFLNRVRGCA  1.5 ± 0.35
56. HAFSSCDYSHYVFGMRPFDL  1.51 ± 0.15
57. SHNVKSWCRYSDGQKGLCKY  1.62 ± 0.43
58. SDEMVW  2.65 ± 0.11
59. NKNMSNKFVSIMQKFFSIDG  2.72 ± 0.13
60. EERDFKEPSRLVIIKLTVMF  3.18 ± 0.12
61. SWRLK  3.35 ± 0.073
62. SGIEAFNRIIGVCCVLEAGR  3.58 ± 0.19
63. RPTYMCSGTGDFLHFVFR  4.64 ± 0.053
64. SPHTI  4.92 ± 0.097
65. NIGVCQIFLDTGMGISVFLN  6.06 ± 0.08
66. LYYCSFRYMIKTRNLNVTFL  6.4 ± 0.084
67. VINIFMVSLANTETDPTAHL  8.324 ± 0.071

With RTGRAYLWGSWSLEHHNLGG the amyloid nucleation score was “inactive”.
With NISCDRGMLG the amyloid nucleation score was “inactive”.
For GRILYEAYTPVERVYAWCSA, the amyloid nucleation score was “inactive”.
In the case of NKNSGSRHHHVTYQLTPGER, the amyloid nucleation score is reported as “inactive”.
With TYHFIYEWISLTIT the amyloid nucleation score was “inactive”.
